Patent publication US20140128319A1

How the values were obtained:
[1] = biological target: Type 1 IGF receptor (IGF-1R) (human) (UniProt P08069); assay: competitive displacement of 125I-labeled IGF-I; IGF-1R (FIG. 9B)
[2] = biological target: Type 1 IGF receptor (IGF-1R) (human) (UniProt P08069); assay: competitive displacement of 125I-Tyr31-human IGF-I; human IGF-1R, Experiment 2
[3] = biological target: Type 1 IGF receptor (IGF-1R) (human) (UniProt P08069); assay: competitive displacement of 125I-Tyr31-human IGF-I; human IGF-1R, Experiment 1

Type 1 IGF receptor (IGF-1R) (human), sequence (P08069 31-1367 limits assumed): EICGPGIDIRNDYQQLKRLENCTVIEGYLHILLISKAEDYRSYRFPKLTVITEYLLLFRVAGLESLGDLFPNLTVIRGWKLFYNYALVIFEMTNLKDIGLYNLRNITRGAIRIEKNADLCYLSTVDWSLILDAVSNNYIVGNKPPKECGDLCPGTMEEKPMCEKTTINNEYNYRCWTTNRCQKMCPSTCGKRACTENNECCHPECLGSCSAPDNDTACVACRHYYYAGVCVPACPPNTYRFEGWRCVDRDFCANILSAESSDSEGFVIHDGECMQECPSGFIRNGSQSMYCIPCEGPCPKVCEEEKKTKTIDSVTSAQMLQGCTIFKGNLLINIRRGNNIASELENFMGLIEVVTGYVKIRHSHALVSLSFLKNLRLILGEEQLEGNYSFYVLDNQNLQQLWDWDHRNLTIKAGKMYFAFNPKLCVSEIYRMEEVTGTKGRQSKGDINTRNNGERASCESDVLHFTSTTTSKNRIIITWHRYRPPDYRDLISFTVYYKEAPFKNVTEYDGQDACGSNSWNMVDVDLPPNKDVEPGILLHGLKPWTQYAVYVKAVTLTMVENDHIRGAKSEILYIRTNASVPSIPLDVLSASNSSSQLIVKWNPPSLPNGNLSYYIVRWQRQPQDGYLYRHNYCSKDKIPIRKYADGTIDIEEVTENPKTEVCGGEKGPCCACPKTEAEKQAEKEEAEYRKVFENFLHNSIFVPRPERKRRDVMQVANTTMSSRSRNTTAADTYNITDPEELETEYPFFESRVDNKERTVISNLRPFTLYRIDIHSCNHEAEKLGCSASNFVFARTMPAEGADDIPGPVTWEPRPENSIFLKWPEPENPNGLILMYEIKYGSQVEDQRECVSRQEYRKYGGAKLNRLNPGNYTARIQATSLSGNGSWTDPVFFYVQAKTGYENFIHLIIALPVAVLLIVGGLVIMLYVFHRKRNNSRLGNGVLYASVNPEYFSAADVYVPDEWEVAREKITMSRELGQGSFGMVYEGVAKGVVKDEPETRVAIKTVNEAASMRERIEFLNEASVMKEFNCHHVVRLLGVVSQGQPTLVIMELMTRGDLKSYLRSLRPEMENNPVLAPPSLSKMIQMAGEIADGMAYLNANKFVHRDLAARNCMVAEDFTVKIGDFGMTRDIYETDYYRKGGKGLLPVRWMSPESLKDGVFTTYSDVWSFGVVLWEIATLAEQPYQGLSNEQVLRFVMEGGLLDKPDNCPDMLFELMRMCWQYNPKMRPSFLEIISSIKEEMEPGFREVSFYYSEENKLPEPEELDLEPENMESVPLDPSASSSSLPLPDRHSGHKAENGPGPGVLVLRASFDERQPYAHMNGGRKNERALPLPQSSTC

| fold reduction of cross-binding relative to KP-insulin or wild-type insulin [1] [fold] | Kd [2] [nM] | Kd [3] [nM] | Substance |
| --- | --- | --- | --- |
| 3 |  |  | 4Cl-Phe^B24-KP-insulin (ligand; para-monochloro-phenylalanine (4Cl-Phe) at B24; other documents disagree on this pair) |
|  | 15.3 | 12.6 | KP-insulin (ligand; other documents disagree on this pair) |
|  |  | 522 | penta-fluoro-Phe^B24-KP-insulin (ligand; penta-fluoro-phenylalanine (F5-Phe) at B24; other documents disagree on this pair) |
